In publication PMC4792069 one finds normalized cross-correlation (FCCS) data, which are given here for one substance.

The assay has as its target LAP-tagged hMps1 (LAP-Mps1), stably expressed from a BAC (human) (UniProt P33981). Briefly: fluorescence cross-correlation spectroscopy.
Chain of UniProt P33981 (P33981 whole entry): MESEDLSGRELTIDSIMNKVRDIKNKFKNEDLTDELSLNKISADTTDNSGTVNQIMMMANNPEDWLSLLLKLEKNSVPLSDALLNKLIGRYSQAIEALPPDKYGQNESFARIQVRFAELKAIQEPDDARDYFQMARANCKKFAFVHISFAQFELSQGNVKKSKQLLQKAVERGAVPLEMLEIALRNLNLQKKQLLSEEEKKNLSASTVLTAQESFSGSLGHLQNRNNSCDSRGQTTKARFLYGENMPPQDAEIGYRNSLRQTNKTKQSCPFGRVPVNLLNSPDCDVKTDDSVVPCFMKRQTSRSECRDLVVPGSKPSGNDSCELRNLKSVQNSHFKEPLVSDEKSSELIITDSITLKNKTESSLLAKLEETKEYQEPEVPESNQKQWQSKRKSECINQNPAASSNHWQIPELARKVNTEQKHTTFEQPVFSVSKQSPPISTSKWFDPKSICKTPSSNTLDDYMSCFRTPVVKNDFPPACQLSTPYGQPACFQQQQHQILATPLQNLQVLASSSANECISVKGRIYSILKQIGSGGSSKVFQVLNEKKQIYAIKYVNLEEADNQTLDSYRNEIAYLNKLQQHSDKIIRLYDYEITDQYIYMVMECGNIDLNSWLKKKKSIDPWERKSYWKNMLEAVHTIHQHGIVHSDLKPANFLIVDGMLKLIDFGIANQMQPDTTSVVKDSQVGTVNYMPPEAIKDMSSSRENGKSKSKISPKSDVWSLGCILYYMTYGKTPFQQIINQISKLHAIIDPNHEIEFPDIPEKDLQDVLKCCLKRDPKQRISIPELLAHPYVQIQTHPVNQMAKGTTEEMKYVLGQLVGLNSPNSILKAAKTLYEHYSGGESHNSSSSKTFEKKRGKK

Regarding “mCherry-tagged ARHGEF17 (ARHGEF17-mCherry), Q96PE2 1-2063”, the normalized cross-correlation (FCCS) amounted to 12.4%.
